Several values for one entry are separate records, joined by “and”; a condition that tells them apart may be missing. Identical values can stand only once.
Legend:
[1] = molecular target: His6-KfrA_(R751) (plasmid R751 (IncP-1β)); assay: cross-linking; glutaraldehyde at different concentrations, protein 0.1 mg/ml, 20 min at 25 °C, 0.05 M bicine-NaOH pH 8.5, 0.1 mM DTT, 0.4 M NaCl; products on SDS-PAGE
KfrA RA3 (His6-KfrARA3) [2] = molecular target: T1, KfrA RA3 (His6-KfrARA3) (IncU plasmid RA3, UniProt Q209P3 1-355); assay: EMSA; two complexes, some smear; EMSA: 50 mM Tris-HCl pH 8.0, 10 mM MgCl2, 50 mM NaCl, 10 pmol DNA, 30 min at 37 C (legend: 25 C), 2.5% agarose in 0.5x TBE; TEM: 0.3 mg/ml protein, 50 mM sodium phosphate pH 7.5, 150 mM NaCl; details: protein: recombinant; chain copies: 2; blunt
T1 sequence: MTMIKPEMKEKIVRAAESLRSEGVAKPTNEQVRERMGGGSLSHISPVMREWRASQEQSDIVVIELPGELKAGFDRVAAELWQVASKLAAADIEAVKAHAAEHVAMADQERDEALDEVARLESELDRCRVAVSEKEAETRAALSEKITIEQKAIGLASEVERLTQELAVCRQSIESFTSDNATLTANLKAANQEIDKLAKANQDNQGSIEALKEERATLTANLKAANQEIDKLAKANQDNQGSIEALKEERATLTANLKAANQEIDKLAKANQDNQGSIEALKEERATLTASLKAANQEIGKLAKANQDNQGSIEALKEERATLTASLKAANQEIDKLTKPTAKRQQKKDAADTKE

KfrA RA3 (His6-KfrARA3) [3] = molecular target: T1, KfrA RA3 (His6-KfrARA3); assay: competition; unlabeled competitor vs labeled OKRA3; EMSA: 50 mM Tris-HCl pH 8.0, 10 mM MgCl2, 50 mM NaCl, 10 pmol DNA, 30 min at 37 C (legend: 25 C), 2.5% agarose in 0.5x TBE; TEM: 0.3 mg/ml protein, 50 mM sodium phosphate pH 7.5, 150 mM NaCl; details: protein: recombinant; chain copies: 2; blunt
[4] = molecular target: T2, KfrA R751 (His6-KfrAR751) (IncP-1beta plasmid R751, UniProt P71173 1-342); assay: EMSA; complex unstable, smear; two complexes; EMSA: 50 mM Tris-HCl pH 8.0, 10 mM MgCl2, 50 mM NaCl, 10 pmol DNA, 30 min at 37 C (legend: 25 C), 2.5% agarose in 0.5x TBE; TEM: 0.3 mg/ml protein, 50 mM sodium phosphate pH 7.5, 150 mM NaCl; details: protein: recombinant; chain copies: 2; blunt
T2 sequence: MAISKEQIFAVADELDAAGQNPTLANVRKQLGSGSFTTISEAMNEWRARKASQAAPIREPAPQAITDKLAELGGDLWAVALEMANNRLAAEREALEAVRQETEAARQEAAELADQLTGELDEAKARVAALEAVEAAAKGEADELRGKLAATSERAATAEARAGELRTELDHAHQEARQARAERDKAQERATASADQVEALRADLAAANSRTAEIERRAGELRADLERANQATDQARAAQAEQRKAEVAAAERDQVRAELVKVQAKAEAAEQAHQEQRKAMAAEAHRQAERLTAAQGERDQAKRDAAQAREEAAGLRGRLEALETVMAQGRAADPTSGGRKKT

His6-KfrA_(R751) (natural protein)
stoichiometry N [1]: 2 and 4

B1: OKRA3 (#17/#18), 60 bp (dsDNA)
DNA 1: TCCGTTGTATTGTATGTATTGTATGTATTGTATTAAAATACAATACATACAATACAGGGA
DNA 2: TCCCTGTATTGTATGTATTGTATTTTAATACAATACATACAATACATACAATACAACGGA
binding result (KfrA RA3 (His6-KfrARA3) [2]): binds

B2: OG5/OD5 (#9/#10), specific competitor (dsDNA)
DNA 1: TATGTATTGTATGTATTGTATTAAAATACAATACATACAATACAGG
DNA 2: CCTGTATTGTATGTATTGTATTTTAATACAATACATACAATACATA
binding result (KfrA RA3 (His6-KfrARA3) [3]): binds

B3: OKR751 (#15/#16), 50 bp (dsDNA)
DNA 1: CTTGCGTAGTGTTGTATGTTGTAGTATGCTACACGCTACAACATACAACC
DNA 2: GGTTGTATGTTGTAGCGTGTAGCATACTACAACATACAACACTACGCAAG
binding result [4]: binds

Source: PMC7821693, “Revealing biophysical properties of KfrA-type proteins as a novel class of cytoskeletal, coiled-coil plasmid-encoded proteins”
